Assay results reported in the nanobody polyreactivity screen of Harvey et al. (2022).

test: yeast display, Sf9 membrane polyspecificity reagent, FACS + sequencing; frameworks hold sequencing errors
Summary of the method: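 Nanobodies came from a synthetic yeast display library in Saccharomyces cerevisiae BJ5465, induced with galactose for 36–48 hours and stained for 1 hour at 4 °C with 10% biotinylated, detergent-solubilized Sf9 membrane reagent. Cells were enriched on streptavidin microbeads and then FACS-sorted, with low and high (top ~1%) gates set on anti-HA fluorescence for expression and streptavidin fluorescence for reagent binding. Each polyreactivity label reflects the gate a clone came from. Genes were amplified by colony PCR, sequenced by MiSeq 2 × 250 and filtered by CDR length.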

Row | Sequence | polyreactivity (PSR sort gate)
1 | QVQLVESGGGLVQAGGSLRLSCAASGITFSYYAMGWYRQAPGKERELVAAINSSGGSTYYADSVKGRFTISRDNAKNTVYLQMNSLKPEDTAVYYCNADYGYHNHLFWGYYGWSSDHWGQGTQVTVSS | low polyreactivity
2 | QVQLVESGGGLVQAGGSLRLSCAASGITFSYYAMGWYRQAPGKERELVAAISGSGTSTYYADSVKGRFTISRDNAKNTVYFQMNSLKPEDTAVYYCAAGPPRKPGYYYWGQGTQVTVSS | high polyreactivity
3 | QVQLVESGGGLVQAGGSLRLSCAASGITFTAYAMGWYRQAPGKEREFVAVITRSGGSTYYADSVKGRFTISRDNAKNTVYLQMNSLKPEDTAVYYCAAETSYRYGWYYYWGQGTQVTVSS | high polyreactivity
4 | QVQLVESGGGLVQAGGSLRLSCAASGITFTDYAMGWYRPAPGKERELVAAISSRGGSTYYADSVKGRFTISRDHAKNTVYLQMNSLKPEDTAVYYCNARFVRRGSGYDYWGQGTQVTLSS | high polyreactivity
5 | QVQLVESGGGLVQAGGSLRLSCAASGITFTEYAMGWYRQAPGKERELVATISYGGGITYYADSVKGRFTISRDNAKNTVYLQMNSLKPEDTAVYYCAADGLSQVQRGMDYWGQGTQVTVSS | low polyreactivity
6 | QVQLVESGGGLVQAGGSLRLSCAASGITFTFYAMGWYRQAPGKERELVAAISRRGGSTYYADSVKGRFTISRDNAKNTVYLQMNSLKPEDTAVYYCAARGYRPMDYWGHGTQVTVSS | high polyreactivity
7 | QVQLVESGGGLVQAGGSLRLSCAASGITFTIYGMGWYRQATGKERELVAVISRRGGSTYYADSVKGRFTISRDNAKNTVYLQMNSLKPEDTAFYYCNTRTQGAKQYTGYDYWGQGTQVTVSS | high polyreactivity
8 | QVQLVESGGGLVQAGGSLRLSCAASGITFTSNTMGWYRKAPGKERELVAAISKSGGSTYYADSVKGRFTISRDNAKNTVYLQMNSLKPEDTAVYYCAKDSYYYRRDVTVDYWGQGTQVTVSS | low polyreactivity
9 | QVQLVESGGGLVQAGGSLRLSCAASGITFTSYAMGWYRQAPGKERELVAAISWSGDRTYYADSVKGRFTISRDNAKNTVYLQMNSLKPEDTAVYYCAADQFTGSVWAYYYWGQGTQVTVSS | high polyreactivity
10 | QVQLVESGGGLVQAGGSLRLSCAASGITFTVYAMGWYRQAPGNEREVVAVINESGGSTYYADSVKGRFTISRDNAKNTVYLQMNSLKPEDTAVYYCNKTRVYVSSTYDYWGQGTQVTVSS | low polyreactivity
11 | QVQLVESGGGLVQAGGSLRLSCAASGITFTYNAMGWYRQAPGKERELVASITLSGGNTYYADSVTGRFTISRDNAKNTVYLQMNSLKPEDTAVYYCAADDRGSSYGHFTVEYGYWGQGTQVTVSS | low polyreactivity
12 | QVQLVESGGGLVQAGGSLRLSCAASGITFTYYAMGWYRQAPGKERELVAAITSGGDTYYADSVKGRFTISRDNAKNTVYLQMNSLKPEDTAVYYCAAEAVVVTKYSYWTYGLYDYWGQGTQVTVSS | high polyreactivity
13 | QVQLVESGGGLVQAGGSLRLSCAASGITFTYYAMGWYRQAPGKERELVAGISRGGSTYYADSVKGRFTISRDNAKNTVYLQMNSLKPEDTAVYYCAATSYRRTGYNYWGQGTQVTVSS | high polyreactivity
14 | QVQLVESGGGLVQAGGSLRLSCAASGITFTYYAMGWYRQAPGKERELVDAITDRGGRTYYSDSVKGRFTISRDNAKNTVYIQMNSLKPEDTAVYYCAAYVPQGYKLYYWGQGTQVTVSS | high polyreactivity
15 | QVQLVESGGGLVQAGGSLRLSCAASGITFVDNAMGWYRQAPGKERELVAVISSSGGSTYYADSVKGRFTISRDNAKNTVYLQMNSLKPEDTAVYYCAARNRFYRRPYDYWGQGTQVTVSS | high polyreactivity
16 | QVQLVESGGGLVQAGGSLRLSCAASGITFVDYVMGWYRQAPGKERELVAAISRGGSRTKYADSVKGRFTISRDNAKNTVYLQMNSLKPEDTAVYYCAAPWLVNHYYPSQEYDYWGQGTQVTVSS | high polyreactivity
17 | QVQLVESGGGLVQAGGSLRLSCAASGITFVFYAMGWYRQAPGKERELVAAISWSGGITYYADSVKGRFTISRDNAKNTVYLQMNSLKPEDTAVYYCAARISWEKYQAGYDYWGQGTQVTVSS | low polyreactivity
18 | QVQLVESGGGLVQAGGSLRLSCAASGITFVGNAMGWYRQAPGKERELVAGIRGNGGSTYYADSVKGRFTISRDNAKYTVYLQMNSLKPEDTAVYYCAAAAYYADFDYWGQGTQVTVSS | low polyreactivity
19 | QVQLVESGGGLVQAGGSLRLSCAASGITFVLNVMGWYRQAPGKERELVAAISWSVGGTYYADSVKGRFTISRDNAKNTVYLQMNSLKPEDTAVYYCAAGSYAYDNYGSEYWKWYGYWGQGTQVTVSS | low polyreactivity
20 | QVQLVESGGGLVQAGGSLRLSCAASGITFVLYAMGWYRQAPGKERELVAAISSGGRTKYADSVKGRFTISRDNAKNTVYLQMNSLKPEDTAVYYCATKTRYLYPAYYYWGQGTQVTVSS | high polyreactivity
21 | QVQLVESGGGLVQAGGSLRLSCAASGITFVRNAMGWYRQAPGKEREFVAAISRSGTTTYYADSVKGRFTISRDNAKNTVYLQMNSLKPEETAVYYCAAVRWVRYRTSAYEYWGQGTQVTVSS | high polyreactivity
22 | QVQLVESGGGLVQAGGSLRLSCAASGITFVRNAMGWYRQAPGKERELVAAISGRGGITYYADSVKGRFTISRDNAKNTVYLQMNSLKPEDTAVYYCAASSAGSSYNYWGQGTQVTVSS | high polyreactivity

Row | Sequence | polyreactivity (PSR sort gate)
23 | QVQLVESGGGLVQAGGSLRLSCAASGITFVRYALGWYRPAPGKERELVAAISRRGGSTYYADSVKGRFTISRDNAKNTVYLQMNSLKPEDTAVYYCNAQRPKATVWQLYDSWGQGTQVTVSS | high polyreactivity
24 | QVQLVESGGGLVQAGGSLRLSCAASGITFVRYTMGWYRQAPGKEREFVAGITRGGSTYYADSVKGRFTISRDNAKNTVYLQMNSLKPEDTAVYYCAARPRFLRASVEYDYWGQGTQVTVSS | high polyreactivity
25 | QVQLVESGGGLVQAGGSLRLSCAASGITFVSNVMGWYRQAPGKEREFVAAITGRGDSTYADSVKGRFTISRDNAKNTVYLQMNSLKPEDTAFYYCNRESDIYSFVAMNYWGQGTQVTVSS | low polyreactivity
26 | QVQLVESGGGLVQAGGSLRLSCAASGITFVSYGMGWYRQAPGKERELVAAISSGGRTYADSVKGRFTISRDNAKNTVYLQMNSLKPEDTAVYYCNARDYASGTEGDYWGQGTLVTVSS | low polyreactivity
27 | QVQLVESGGGLVQAGGSLRLSCAASGITFVTYAMGWSRQAPGKERELVADISWRGTSTNYADSVKGRFTISRDNAKNTVYFQMISLKPEDTAVYYCAAKQTYTRLHYLGPSVWDNYDYWGQGTQVTVSS | high polyreactivity
28 | QVQLVESGGGLVQAGGSLRLSCAASGITFVVYAMGCYRPAPGKERELVASITYSGGSTYYADSVQGRFTISRDNAKNTVYLQMTSLKPEDTAVYYCNADGYTIYYLPYSDYDAYDYWGQGTQVTVSS | low polyreactivity
29 | QVQLVESGGGLVQAGGSLRLSCAASGITFVWYDMGGYRQAPGKEREFVAVISKRGGSTYYADSVKGRFTISRDNAKNTVYLQMNSLKPEDTAVYYCAASYNLYRRYYYWGQGTQVTVSS | high polyreactivity
30 | QVQLVESGGGLVQAGGSLRLSCAASGITFVWYDMGWYRQAPGKEREFVAVISKRGGSTYYADSVKGRFTISRDNAKNTVYLQMNSLKPEDTAVYYCAASYNLYRRYYYWGQGTQVTVSS | high polyreactivity
31 | QVQLVESGGGLVQAGGSLRLSCAASGITFVYYAMGWYRQAPGKERELVAAITSDGGSTYYADSVKGRFTISRDNAKNTVYLQMNSLKPEDTAVYYCAAEWTSWSWWYGWYEFDYWGQGTQVTVSS | high polyreactivity
32 | QVQLVESGGGLVQAGGSLRLSCAASGITFVYYAMGWYRQAPGKERELVASISSGGSTYYADSVKGRFTISRDNAKNTVYLQMNSLKPEDTAVYYCAAPTGWYPAYCEYEYWGQGTQVTVSS | low polyreactivity
33 | QVQLVESGGGLVQAGGSLRLSCAASGITFVYYVMGWYRQAPGKERELVAGISSGGSTYYADSVKGRFTISRDNAKNTVYLQMNSLKPEDTAVYYCAAVSTPYYGHVKRYYYWGQGTQVTVSS | high polyreactivity
34 | QVQLVESGGGLVQAGGSLRLSCAASGITFWGYAMGWYRQAPGKEREFVARINWSGGRTYYAESVKGRFTISRDNAKNTVYLQMNSLKPEDTAVYYCAATSLIYGYRTYDYWGQGTQVTVSS | high polyreactivity
35 | QVQLVESGGGLVQAGGSLRLSCAASGITFWGYAMGWYRQAPGKEREFVARINWSGGRTYYAESVKGRFTISRDNAKNTVYLQMNSLKPEDTAVYYCNVVLRSVVSGDYWVQGTQVTVSS | high polyreactivity
36 | QVQLVESGGGLVQAGGSLRLSCAASGITFWPYAMGWYIQAPGKERELVAAIRASAGRTYYADSVKGRFTISRDNAKNTVYLQMNSLKPEDTAVYYCNAYGRYGKFRVEYDYWGQGTQVTVSS | low polyreactivity
37 | QVQLVESGGGLVQAGGSLRLSCAASGITFWRYAMGWYRQAPGKERELVAAIDWSGGDTYYADSVKGRFTISRDNAKNTVYLQMNRLKPEDTAVYYCATDRYAYKLYDYWGQGTQVTVSS | low polyreactivity
38 | QVQLVESGGGLVQAGGSLRLSCAASGITFWSNAMGWYRQAPGKERELVAAITSSGGSAYYADSVKGRFTISRDNAKNTVYLQMNSLKPEDTAVYYCAAPISRSAGWDSYDYWGQGTQVTVSS | low polyreactivity
39 | QVQLVESGGGLVQAGGSLRLSCAASGITFWVYAMGWYRQSPGKESELVATISRSGGRTYYADSVKGRFTISRDNAKTTVYLQMNSLKPEDTAVYYCAARYRNVLGYDYDFWGQGTQVTVSS | high polyreactivity
40 | QVQLVESGGGLVQAGGSLRLSCAASGITFWYNAMGWYRQAPGKERELVAAISGGGGSTYYADSVKGRFTISRDNAMNTVYLQMNSLKPEDTAVYYCAARQVARVYSGRYGYWGQGTQVTVSS | high polyreactivity
41 | QVQLVESGGGLVQAGGSLRLSCAASGITFYDNAMGWYRQAPGKERELVAGISSGGRTYYADSVKGRFTISRDNAKNTVYLQMNSLKPEDTAVYYCNAASLVAYLARLGRDYWGQGTQVTVSS | low polyreactivity
42 | QVQLVESGGGLVQAGGSLRLSCAASGITFYDNVMGWYRQAPGKERELVAAITSGGSTNYGDSVKGRFTFSRDNAKNTVYLQMNSLKPEETAVYYCAAQPRVVYEFPYRYGYWGQGTQVTVSS | low polyreactivity
43 | QVQLVESGGGLVQAGGSLRLSCAASGITFYDYAMGWYRQAPGKERELVAAISGGGITYYADSVKGRFTISRDNAKNTVYLQMNSLKPEDTAVYYCAAERYSPSVGYDYWGQGTQVTVSS | low polyreactivity
